Target: recombinant human tau, largest isoform (2N4R)

B1: casein kinase 1 (CK1) (protein)
chain: MELRVGNRYRLGRKIGSGSFGDIYLGTDIAAGEEVAIKLECVKTKHPQLHIESKIYKMMQGGVGIPTIRWCGAEGDYNVMVMELLGPSLEDLFNFCSRKFSLKTVLLLADQMISRIEYIHSKNFIHRDVKPDNFLMGLGKKGNLVYIIDFGLAKKYRDARTHQHIPYRENKNLTGTARYASINTHLGIEQSRRDDLESLGYVLMYFNLGSLPWQGLKAATKRQKYERISEKKMSTPIEVLCKGYPSEFATYLNFCRSLRFDDKPDYSYLRQLFRNLFHRQGFSYDYVFDWNMLKFGASRAADDAERERRDREERLRH
- New sites identified in recombinant tau (phosphorylated residues, numbered on 441-residue human tau): (46/50), 113, 131, 149, 169, 184, 208, (210, 212), 214, 237, 238, 241, 258, 262, 263, 285, 289, 305, 341, 352, 356, 361, 373, 386, (412/413/414/416, 2 sites), 416, 433, 435
- in vitro phosphorylation of recombinant tau, sites identified by LC/MS/MS: CK1 found 28 new sites making a total of 30 sites in all.

Reference: patent US8822171
